± gives the standard deviation of the averaged measurements.
B1: library; a variant is named by its letters at N, in order (parent)
chain: GCUGUCACCGAGAAACUGUGAAGUAUAUCUUAAACCUGGGCACUUAAAAGAUAUAUGGAGUUAGUAGUGCAACCUGCUCGGUCUGAUGAGUCCNNNNNNGGACGAAACAGC

Assays:
cyclic di-GMP [1] = variants of: B1; assay: normalized RNA/DNA level without ligand (relative to sTRSVctl = 100) (log10 (% of sTRSVctl)); HEK293T; ligand: cyclic di-GMP (c-di-GMP-II aptamer); higher = less ribozyme self-cleavage, higher mRNA level; conditions: reporter: mCherry (pCS4076), ligand present: no
Outline: (§1)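 Library plasmids encoding reporter-linked ribozyme switches (mCherry, or eGFP for some folinic acid experiments) were transfected into HEK293T at 4 µg per 6-well well. Ligand, when used, was added 1 h before transfection. Total RNA was extracted with EDTA 72 h later, then reverse-transcribed, amplified, barcoded and sequenced. RNA level was RNA reads over DNA reads, divided by a spiked-in non-cleaving control (or the top 25 sequences), ×100, log10; only sequences with ≥100 DNA reads were kept.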

cyclic di-GMP [2] = variants of: B1; assay: normalized RNA/DNA level with ligand (relative to sTRSVctl = 100) (log10 (% of sTRSVctl)); HEK293T; ligand: cyclic di-GMP (c-di-GMP-II aptamer); ligand concentration (+) RNA-Seq: 1 mM; higher = less ribozyme self-cleavage, higher mRNA level; conditions: reporter: mCherry (pCS4076), ligand present: yes
Outline: as §1

Row | Variant | normalized RNA/DNA level without ligand (log10) (cyclic di-GMP [1]) | normalized RNA/DNA level with ligand (log10) (cyclic di-GMP [2])
1 | GGCAGG | 1.82 ± 0.022 | 1.83 ± 0.042
2 | UGAUUA | 1.704 ± 0.011 | 1.84 ± 0.11
3 | GCAAAA | 1.35 ± 0.18 | 1.59 ± 0.078
4 | UGGACG | 1.782 ± 0.011 | 1.86 ± 0.15
5 | GAUUUG | 1.6 ± 0.025 | 1.76 ± 0.11
6 | GGUACC | 1.82 ± 0.038 | 1.93 ± 0.12
7 | GGCCCA | 1.8 ± 0.035 | 1.88 ± 0.082
8 | CAAGGA | 1.46 ± 0.077 | 1.64 ± 0.064
9 | GCUGAU | 1.55 ± 0.061 | 1.72 ± 0.087
10 | CUGAGA | 1.46 ± 0.079 | 1.69 ± 0.11
11 | ACAUUC | 1.6 ± 0.084 | 1.81 ± 0.058
12 | UCAAGU | 1.52 ± 0.048 | 1.73 ± 0.1
13 | AGUCUG | 1.629 ± 0.012 | 1.76 ± 0.056
14 | CCUAUC | 1.63 ± 0.075 | 1.79 ± 0.077
15 | CUGUAC | 1.67 ± 0.033 | 1.82 ± 0.096
16 | UAGCGC | 1.76 ± 0.019 | 1.88 ± 0.036
17 | UUCCAU | 1.73 ± 0.028 | 1.85 ± 0.15
18 | AUAUAU | 1.678 ± 0.0055 | 1.83 ± 0.11
19 | UGUAGC | 1.73 ± 0.043 | 1.83 ± 0.15
20 | GAAUAU | 1.59 ± 0.039 | 1.79 ± 0.077

Row | Variant | normalized RNA/DNA level without ligand (log10) (cyclic di-GMP [1]) | normalized RNA/DNA level with ligand (log10) (cyclic di-GMP [2])
21 | CGUGCC | 1.75 ± 0.02 | 1.84 ± 0.093
22 | AGCACA | 1.58 ± 0.029 | 1.72 ± 0.12
23 | UUACCU | 1.74 ± 0.022 | 1.86 ± 0.069
24 | AGAAGU | 1.57 ± 0.022 | 1.75 ± 0.16
25 | GGCGCC | 1.79 ± 0.041 | 1.84 ± 0.083
26 | UGUAAC | 1.718 ± 0.0028 | 1.84 ± 0.12
27 | CUAGCU | 1.72 ± 0.027 | 1.85 ± 0.13
28 | CGGGAC | 1.669 ± 0.012 | 1.79 ± 0.085
29 | AACGGU | 1.52 ± 0.049 | 1.77 ± 0.1
30 | ACCAGA | 1.39 ± 0.11 | 1.6 ± 0.13
31 | AGCCGA | 1.748 ± 0.014 | 1.84 ± 0.14
32 | GUAUUA | 1.578 ± 0.0077 | 1.75 ± 0.1
33 | GUUCGC | 1.83 ± 0.062 | 1.92 ± 0.073
34 | AAGAUU | 1.63 ± 0.043 | 1.8 ± 0.054
35 | UAUGCC | 1.81 ± 0.042 | 1.91 ± 0.15
36 | UUAGAC | 1.702 ± 0.0078 | 1.83 ± 0.1
37 | UAGGAC | 1.528 ± 0.015 | 1.73 ± 0.082
38 | GUGGGU | 1.66 ± 0.081 | 1.85 ± 0.064
39 | ACUGCA | 1.64 ± 0.023 | 1.77 ± 0.1
40 | GCCAGU | 1.604 ± 0.016 | 1.82 ± 0.098

Row | Variant | normalized RNA/DNA level without ligand (log10) (cyclic di-GMP [1]) | normalized RNA/DNA level with ligand (log10) (cyclic di-GMP [2])
41 | CUCCCG | 1.79 ± 0.088 | 1.91 ± 0.14
42 | AAUCUU | 1.74 ± 0.09 | 1.86 ± 0.1
43 | ACGAGG | 1.5 ± 0.06 | 1.69 ± 0.1
44 | UAGAUA | 1.614 ± 0.012 | 1.78 ± 0.11
45 | ACUAUG | 1.586 ± 0.01 | 1.75 ± 0.087
46 | UCUCGA | 1.8 ± 0.036 | 1.86 ± 0.15
47 | UCUCGG | 1.9 ± 0.063 | 1.96 ± 0.13
48 | GACUAU | 1.645 ± 0.009 | 1.81 ± 0.12
49 | UCGGGA | 1.46 ± 0.035 | 1.72 ± 0.11
50 | GUAGUU | 1.61 ± 0.043 | 1.75 ± 0.061
51 | GCCGCC | 1.72 ± 0.033 | 1.82 ± 0.075
52 | CGCGCA | 1.65 ± 0.046 | 1.75 ± 0.13
53 | AAAACC | 1.68 ± 0.014 | 1.81 ± 0.083
54 | CAAGAG | 1.6 ± 0.023 | 1.78 ± 0.14
55 | UGUUUC | 1.812 ± 0.0031 | 1.92 ± 0.08
56 | UCACAU | 1.58 ± 0.048 | 1.78 ± 0.087
57 | UGAAAG | 1.77 ± 0.047 | 1.87 ± 0.1
58 | CCCUUA | 1.47 ± 0.04 | 1.7 ± 0.15

Reference: the supplement of paper PMC6757056
